Results taken from US20140087995A1 (published 2014).
Numbered stars: 1 amine (or outer) side, 2 acyl side, 3 side chain; on linkers, the order of the positions; unused ones are H or OH. Bridge positions count the residues as written; N and C are the ends. Side chains are listed from the residue outwards. Ends that are not written are not given here. * marks the point of attachment. C20 diacid = O=C(O)CCCCCCCCCCCCCCCCCCC(=O)*; γGlu = O=C(O)[C@H](CCC(=O)[*:2])N[*:1]; AEEA = NCCOCCOCC(=O)O

T1: rat calcitonin receptor (rat, UniProt P32214 25-516)
T1 construct: whole, on cells; Used as membranes prepared from BHK tk'ts 13 cells transiently transfected with the rat calcitonin receptor (Assay VIII); also called rCTR; rat calcitonin (a) receptor
T1 sequence (looked up): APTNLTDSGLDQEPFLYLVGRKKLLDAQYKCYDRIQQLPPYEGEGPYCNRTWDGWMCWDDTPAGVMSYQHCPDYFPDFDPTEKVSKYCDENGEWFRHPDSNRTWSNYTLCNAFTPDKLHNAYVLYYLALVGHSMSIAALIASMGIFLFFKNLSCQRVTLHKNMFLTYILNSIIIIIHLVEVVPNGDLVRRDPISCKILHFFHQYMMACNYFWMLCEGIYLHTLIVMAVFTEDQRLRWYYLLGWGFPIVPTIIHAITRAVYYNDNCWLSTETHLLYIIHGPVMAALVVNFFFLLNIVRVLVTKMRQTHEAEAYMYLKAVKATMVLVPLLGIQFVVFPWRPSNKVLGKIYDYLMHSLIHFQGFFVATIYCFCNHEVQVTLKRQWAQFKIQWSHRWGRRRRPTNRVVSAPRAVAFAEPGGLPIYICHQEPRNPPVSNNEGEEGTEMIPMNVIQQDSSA

T2: human calcitonin receptor (human, UniProt P30988 25-474)
T2 construct: whole, on cells; Used as membranes prepared from a BHK tk'ts 13 cell line stably transfected with the human calcitonin receptor (Assay VII); also called hCTR; hCT
T2 sequence (looked up): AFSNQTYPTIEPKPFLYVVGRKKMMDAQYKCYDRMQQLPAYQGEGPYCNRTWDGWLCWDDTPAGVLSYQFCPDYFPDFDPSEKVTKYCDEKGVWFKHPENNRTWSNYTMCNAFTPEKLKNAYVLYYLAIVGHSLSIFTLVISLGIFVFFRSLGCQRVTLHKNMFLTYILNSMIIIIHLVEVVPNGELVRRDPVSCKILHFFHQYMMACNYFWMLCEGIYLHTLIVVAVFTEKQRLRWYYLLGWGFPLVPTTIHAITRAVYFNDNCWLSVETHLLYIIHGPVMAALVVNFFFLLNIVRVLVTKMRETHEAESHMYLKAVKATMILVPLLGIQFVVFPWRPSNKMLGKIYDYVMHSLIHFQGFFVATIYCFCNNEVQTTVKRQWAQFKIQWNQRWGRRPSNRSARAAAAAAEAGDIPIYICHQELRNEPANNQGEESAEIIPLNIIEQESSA

T3: rat amylin receptor (rat calcitonin receptor + rat RAMP 3) (rat, UniProt P32214 25-516; Q9JJ73 23-147)
T3 construct: whole, on cells; Used as membranes prepared from BHK tk'ts 13 cells transiently transfected with rat calcitonin receptor and rat RAMP 3 (Assay VI); also called rAmylin-R; rat amylin 3(a) receptor
T3 sequence (looked up) 1: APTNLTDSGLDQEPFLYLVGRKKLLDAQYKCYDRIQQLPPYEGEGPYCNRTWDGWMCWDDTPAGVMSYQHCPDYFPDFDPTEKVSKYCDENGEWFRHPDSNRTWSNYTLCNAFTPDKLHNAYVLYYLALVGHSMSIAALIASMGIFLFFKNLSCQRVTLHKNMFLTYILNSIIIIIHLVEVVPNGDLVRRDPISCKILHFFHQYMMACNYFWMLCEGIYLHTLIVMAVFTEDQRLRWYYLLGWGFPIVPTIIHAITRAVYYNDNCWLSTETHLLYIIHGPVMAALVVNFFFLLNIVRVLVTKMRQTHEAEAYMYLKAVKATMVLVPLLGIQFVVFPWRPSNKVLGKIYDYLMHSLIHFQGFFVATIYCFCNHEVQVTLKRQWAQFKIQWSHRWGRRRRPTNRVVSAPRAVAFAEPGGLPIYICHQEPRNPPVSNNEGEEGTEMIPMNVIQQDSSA
T3 sequence (looked up) 2: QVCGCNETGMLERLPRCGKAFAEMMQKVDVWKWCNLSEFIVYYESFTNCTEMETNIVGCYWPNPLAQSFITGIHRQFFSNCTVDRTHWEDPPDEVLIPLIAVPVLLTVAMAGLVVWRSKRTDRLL


How the values were obtained:
rat calcitonin receptor [1] = target: T1, rat calcitonin receptor; assay: IC50 on rat CTR divided by IC50 on rat amylin receptor (Assays VIII/VI)
[2] = target: T2, human calcitonin receptor; assay: IC50 on human CTR divided by IC50 on human amylin receptor (Assays VII/V)
Experimental: The resulting pellet was resuspended, homogenized and centrifuged (20.000 rpm, 15 min) in a buffer containing 20 mM Na-HEPES and 0.1 mM EDTA (pH 7.4, buffer 2). The resulting pellet was resuspended in buffer 2 and protein concentration was measured (BCA protein Assay, Pierce). The homogenate was kept cold during the whole procedure. The membranes were kept at −80° C. until use. The assay was performed in a 384 well Optiplate (PerkinElmer) in a total volume of 40 ul. Membranes were mixed with SPA beads. Final concentration of membranes 35 ng/μL final and SPA beads was 0.05 mg/well. Test-compounds were dissolved in DMSO and further diluted in assay buffer (50 mM Hepes, pH 7.4, 1 mM CaCl2, 5 mM MgCl₂, 0.1% OA and 0.02% Tween20). […] The final mixture was incubated with shaking at 400 rpm for 120 min at 25° C. prior to centrifugation (1500 rpm, 10 min). Samples were analyzed on TopCounter™ (Packard). The IC₅₀ was calculated using (one site binding competition analysis) GraphPad Prism5 as a measure of receptor affinity.
Membranes were prepared in the following way; the cells were rinsed with PBS and incubated with Versene for approximately 5 min before harvesting. The cells were flushed with PBS and the cell-suspension was centrifuged for 5 min at 1000 rpm. Cells were homogenized (Ultrathurrax) in a buffer containing 20 mM Na-HEPES and 10 mM EDTA (pH 7.4) and centrifuged at 20.000 rpm for 15 min. The resulting pellet was resuspended, homogenized and centrifuged (20.000 rpm, 15 min) in a buffer containing 20 mM Na-HEPES and 0.1 mM EDTA (pH 7.4, buffer 2). The resulting pellet was resuspended in buffer 2 and protein concentration was measured (BCA protein Assay, Pierce). The homogenate was kept cold during the whole procedure. The membranes were kept at −80° C. until use. Assay was performed in a 384 well Optiplate (PerkinElmer) in a total volume of 40 ul. Membranes were mixed with SPA beads.

rat calcitonin receptor [3] = target: T1, rat calcitonin receptor; assay: SPA competition with 125I-calcitonin, membranes of BHK cells with rat CTR (Assay VIII)
[4] = target: T3, rat amylin receptor (rat calcitonin …); assay: SPA competition with 125I-rat amylin, membranes of BHK cells with rat CTR + rat RAMP3 (Assay VI)

Ratio rCT/rAmylin binding (rat calcitonin receptor [1])	Ratio hCT/hAmylin binding [2]	IC50 (rat calcitonin receptor [3])	IC50 [4]	Binder
77.2	51.8	6.25 nM	0.081 nM	K([AEEA-γGlu-C20 diacid])CNTATCATQRLANFLRHSSPNFGAIPPSTNVGPNTY-NH2 (disulfide 2-7; N-terminus assumed; SMILES CC[C@H](C)[C@H](NC(=O)[C@H](C)NC(=O)CNC(=O)[C@H](Cc1ccccc1)NC(=O)[C@H](CC(N)=O)NC(=O)[C@@H]1CCCN1C(=O)[C@H](CO)NC(=O)[C@H](CO)NC(=O)[C@H](Cc1c[nH]cn1)NC(=O)[C@H](CCCNC(=N)N)NC(=O)[C@H](CC(C)C)NC(=O)[C@H](Cc1ccccc1)NC(=O)[C@H](CC(N)=O)NC(=O)[C@H](C)NC(=O)[C@H](CC(C)C)NC(=O)[C@H](CCCNC(=N)N)NC(=O)[C@H](CCC(N)=O)NC(=O)[C@@H](NC(=O)[C@H](C)NC(=O)[C@@H]1CSSC[C@H](NC(=O)[C@@H](N)CCCCNC(=O)COCCOCCNC(=O)CC[C@H](NC(=O)CCCCCCCCCCCCCCCCCCC(=O)O)C(=O)O)C(=O)N[C@@H](CC(N)=O)C(=O)N[C@@H]([C@@H](C)O)C(=O)N[C@@H](C)C(=O)N[C@@H]([C@@H](C)O)C(=O)N1)[C@@H](C)O)C(=O)N1CCC[C@H]1C(=O)N1CCC[C@H]1C(=O)N[C@@H](CO)C(=O)N[C@H](C(=O)N[C@@H](CC(N)=O)C(=O)N[C@H](C(=O)NCC(=O)N1CCC[C@H]1C(=O)N[C@@H](CC(N)=O)C(=O)N[C@H](C(=O)N[C@@H](Cc1ccc(O)cc1)C(N)=O)[C@@H](C)O)C(C)C)[C@@H](C)O, Analogue of human amylin; also called compound 55)
179	146	8.79 nM	0.049 nM	K([AEEA-γGlu-C20 diacid])CNTATCATQRLANFLRHSSPNFGAIPSPTPVGSNTY-NH2 (disulfide 2-7; N-terminus assumed; SMILES CC[C@H](C)[C@H](NC(=O)[C@H](C)NC(=O)CNC(=O)[C@H](Cc1ccccc1)NC(=O)[C@H](CC(N)=O)NC(=O)[C@@H]1CCCN1C(=O)[C@H](CO)NC(=O)[C@H](CO)NC(=O)[C@H](Cc1c[nH]cn1)NC(=O)[C@H](CCCNC(=N)N)NC(=O)[C@H](CC(C)C)NC(=O)[C@H](Cc1ccccc1)NC(=O)[C@H](CC(N)=O)NC(=O)[C@H](C)NC(=O)[C@H](CC(C)C)NC(=O)[C@H](CCCNC(=N)N)NC(=O)[C@H](CCC(N)=O)NC(=O)[C@@H](NC(=O)[C@H](C)NC(=O)[C@@H]1CSSC[C@H](NC(=O)[C@@H](N)CCCCNC(=O)COCCOCCNC(=O)CC[C@H](NC(=O)CCCCCCCCCCCCCCCCCCC(=O)O)C(=O)O)C(=O)N[C@@H](CC(N)=O)C(=O)N[C@@H]([C@@H](C)O)C(=O)N[C@@H](C)C(=O)N[C@@H]([C@@H](C)O)C(=O)N1)[C@@H](C)O)C(=O)N1CCC[C@H]1C(=O)N[C@@H](CO)C(=O)N1CCC[C@H]1C(=O)N[C@H](C(=O)N1CCC[C@H]1C(=O)N[C@H](C(=O)NCC(=O)N[C@@H](CO)C(=O)N[C@@H](CC(N)=O)C(=O)N[C@H](C(=O)N[C@@H](Cc1ccc(O)cc1)C(N)=O)[C@@H](C)O)C(C)C)[C@@H](C)O, Analogue of human amylin; also called compound 54)
131	42.6	5.26 nM	0.04 nM	K([AEEA-γGlu-C20 diacid])CNTATCATQRLANFLRHSSPNFGAIPSPTNVGPNTY-NH2 (disulfide 2-7; N-terminus assumed; SMILES CC[C@H](C)[C@H](NC(=O)[C@H](C)NC(=O)CNC(=O)[C@H](Cc1ccccc1)NC(=O)[C@H](CC(N)=O)NC(=O)[C@@H]1CCCN1C(=O)[C@H](CO)NC(=O)[C@H](CO)NC(=O)[C@H](Cc1c[nH]cn1)NC(=O)[C@H](CCCNC(=N)N)NC(=O)[C@H](CC(C)C)NC(=O)[C@H](Cc1ccccc1)NC(=O)[C@H](CC(N)=O)NC(=O)[C@H](C)NC(=O)[C@H](CC(C)C)NC(=O)[C@H](CCCNC(=N)N)NC(=O)[C@H](CCC(N)=O)NC(=O)[C@@H](NC(=O)[C@H](C)NC(=O)[C@@H]1CSSC[C@H](NC(=O)[C@@H](N)CCCCNC(=O)COCCOCCNC(=O)CC[C@H](NC(=O)CCCCCCCCCCCCCCCCCCC(=O)O)C(=O)O)C(=O)N[C@@H](CC(N)=O)C(=O)N[C@@H]([C@@H](C)O)C(=O)N[C@@H](C)C(=O)N[C@@H]([C@@H](C)O)C(=O)N1)[C@@H](C)O)C(=O)N1CCC[C@H]1C(=O)N[C@@H](CO)C(=O)N1CCC[C@H]1C(=O)N[C@H](C(=O)N[C@@H](CC(N)=O)C(=O)N[C@H](C(=O)NCC(=O)N1CCC[C@H]1C(=O)N[C@@H](CC(N)=O)C(=O)N[C@H](C(=O)N[C@@H](Cc1ccc(O)cc1)C(N)=O)[C@@H](C)O)C(C)C)[C@@H](C)O, Analogue of human amylin; also called compound 56)
135	133	24.4 nM	0.181 nM	K([AEEA-γGlu-C20 diacid])CNTATCATQRLANFLRHSSPNFGAIPSSTPVGSHTY-NH2 (disulfide 2-7; N-terminus assumed; SMILES CC[C@H](C)[C@H](NC(=O)[C@H](C)NC(=O)CNC(=O)[C@H](Cc1ccccc1)NC(=O)[C@H](CC(N)=O)NC(=O)[C@@H]1CCCN1C(=O)[C@H](CO)NC(=O)[C@H](CO)NC(=O)[C@H](Cc1c[nH]cn1)NC(=O)[C@H](CCCNC(=N)N)NC(=O)[C@H](CC(C)C)NC(=O)[C@H](Cc1ccccc1)NC(=O)[C@H](CC(N)=O)NC(=O)[C@H](C)NC(=O)[C@H](CC(C)C)NC(=O)[C@H](CCCNC(=N)N)NC(=O)[C@H](CCC(N)=O)NC(=O)[C@@H](NC(=O)[C@H](C)NC(=O)[C@@H]1CSSC[C@H](NC(=O)[C@@H](N)CCCCNC(=O)COCCOCCNC(=O)CC[C@H](NC(=O)CCCCCCCCCCCCCCCCCCC(=O)O)C(=O)O)C(=O)N[C@@H](CC(N)=O)C(=O)N[C@@H]([C@@H](C)O)C(=O)N[C@@H](C)C(=O)N[C@@H]([C@@H](C)O)C(=O)N1)[C@@H](C)O)C(=O)N1CCC[C@H]1C(=O)N[C@@H](CO)C(=O)N[C@@H](CO)C(=O)N[C@H](C(=O)N1CCC[C@H]1C(=O)N[C@H](C(=O)NCC(=O)N[C@@H](CO)C(=O)N[C@@H](Cc1c[nH]cn1)C(=O)N[C@H](C(=O)N[C@@H](Cc1ccc(O)cc1)C(N)=O)[C@@H](C)O)C(C)C)[C@@H](C)O, Analogue of human amylin; also called compound 57)
